In paper PMC6879724, “Insect Hsp90 Chaperone Assists Bacillus thuringiensis Cry Toxicity by Enhancing Protoxin Binding to the Receptor and by Protecting Protoxin from Gut Protease Degradation” (mBio, 2019):

Experiments:
[1] = biological target: Cry1Ac protoxin (Bacillus thuringiensis (strain HD73), UniProt P05068 1-1178); assay: ELISA; plates coated with 0.5 ug protoxin or activated toxin in PBS; PxHsp90 in Hsp90 buffer (1 mM ATP, 1 mM Mg in PBS) added for 1 h at 37 C; detected with anti-polyhistidine-peroxidase antibody; one sample without ATP (binding significantly reduced); details: both partners purified
[2] = biological target: T1, Cry1Ab protoxin (Bacillus thuringiensis, UniProt P0A370 1-1155); assay: as above; details: both partners purified
T1 construct: also called 130-kDa protoxin

B1: Plutella xylostella Hsp90 (natural protein)
chain: not shown
notes: Hsp90 of Plutella xylostella, gene Pxhsp90 (GenBank AB214972.1), amplified from genomic DNA with primers from the start codon (NdeI) to the stop codon (BamHI); Cloned NdeI-BamHI into pET28b with its own stop codon, so the His tag is probably N-terminal (surmised); detected in the ELISA with an anti-polyhistidine antibody; also called PxHsp90; source: E. coli BL21 (pET28b), purified (Ni-NTA from …)
binding result [1]: binds
binding result [2]: binds
